Results from article PMC12120882.

B1: SlCHS1 promoter E-box probe 1 (dsDNA)
DNA 1: AAGCCATTTTCTCTTCTTCACTTGCTAAAATTTGTATAATAT
DNA 2: ATATTATACAAATTTTAGCAAGTGAAGAAGAGAAAATGGCTT
B2: SlFLS promoter E-box probe 3 (dsDNA)
DNA 1: TAAAAAGCTGTTTATCAGCACTTGTTTGCCAAACACATCAAC
DNA 2: GTTGATGTGTTTGGCAAACAAGTGCTGATAAACAGCTTTTTA
B3: SlFLS promoter E-box probe 2 (dsDNA)
DNA 1: ATTATACATACAAAATATCAATTGCAAGCTCTGATTTTATGT
DNA 2: ACATAAAATCAGAGCTTGCAATTGATATTTTGTATGTATAAT
B4: SlCHS1 promoter E-box probe 3 (dsDNA)
DNA 1: TTTATACAGTTCTCTGCCCAAGTGTCTTTCTCTTTCTTGTTT
DNA 2: AAACAAGAAAGAGAAAGACACTTGGGCAGAGAACTGTATAAA
B5: SlCHS1 promoter E-box probe 2 (dsDNA)
DNA 1: CTAAAAAAGTTGCTCAAACACGTGAAGACTAGCTACCGCCTA
DNA 2: TAGGCGGTAGCTAGTCTTCACGTGTTTGAGCAACTTTTTTAG

What follows are binders tested against SlbHLH95 (GST fusion) (Solanum lycopersicum, UniProt A0A3Q7IJR5 1-380) (assay: EMSA).
B1: no binding.
B2: no binding.
B3: binds.
B4: no binding.
B5: no binding.
